Experimental data taken from the RNAGym collection of RNA variant scans (doi:10.1093/nar/gkz1192).

B1: CPEB3 Ribozyme (parent)
chain: UAACAGGGGGCCACAGCAGAAGCGUUCACGUCGCAGCCCCUGUCAGAUUCUGGUGAAUCUGCGAAUUCUGCUGUAUAUCUC

Variants of: B1
Assay: self-cleavage, relative activity (ratio to wild type); higher = more cleavage; in vitro, sequencing
In short: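 Barcoded CPEB3 ribozyme mutants, produced by rounds of error-prone PCR, self-cleaved while being transcribed with T7 RNA polymerase for 5 hours at 37°C and during a subsequent 15 min DNase I step before EDTA was added. Sequencing of template-switched cDNA on Illumina gave cleaved and total reads, and DNA sequencing assigned barcodes to variants. Each variant's relative activity is its cleaved/total read fraction divided by the unmutated ribozyme's fraction, averaged across three batches. A variant needed a minimum of 5 reads.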

Variant | self-cleavage
U31G A57G | 0.48
C32U U74C | 0.38
C32U U74G | 0.09
C32A U80C | 0.69
C32A U80A | 0.37
G33C A65G | 0.18
G33C A65C | 0.1
C32U G53A | 0.27
G33C A45U | 0.17
G33C A45G | 0.23
C32A A77U | 0.33
U31G U43C | 0.36
U31G G52A | 0.74
U31G C40G | 0.12
C32G U78C | 0.09
G33A C50U | 0.1
G33A C50G | 0.22
C32A U54A | 0.29
C32A U54C | 0.32
G33A G63U | 0.1
G33A G63A | 0.14
C32U U72A | 0.11
C32U U72C | 0.4
C32A A35G | 0.87

Variant | self-cleavage
C32U G61C | 0.18
C32U C59U | 0.12
C32U G46A | 0.15
U31C U67C | 0.26
U31C U67A | 0.34
C32A G63A | 0.4
C32G G73A | 0.22
G33A U41A | 0.41
G33A U41C | 0.39
C32A U66C | 0.16
C32U A75G | 0.11
C32U A56G | 0.17
C32U A56U | 0.19
U31C U48C | 0.37
U31C U48A | 0.39
G33C A75G | 0.18
C32A G52U | 0.13
C32A G52A | 0.29
C32A G52C | 0.1
C32G U54A | 0.19
C32A U60A | 0.17
U31G C44U | 0.16
C32A U72C | 0.17
C32A U72A | 0.12

Variant | self-cleavage
C32A U72G | 0.19
C32G A57G | 0.1
C32U A45C | 0.15
C32U A45G | 0.15
C32U A45U | 0.3
C32U U60C | 0.18
C32U U60G | 0.4
C32U U60A | 0.21
U31G C39U | 0.34
C32A U69A | 0.18
C32A U69C | 0.07
G33C C38U | 0.12
C32U C38U | 0.08
G33A C79A | 0.23
C32G U67C | 0.09
U31G U67A | 0.25
U31G U67C | 0.3
U31G U41C | 0.33
U31G U41A | 0.29
G33A U74A | 0.33
G33A U74C | 0.57
U31G U51C | 0.52
C32A U78C | 0.2
G33A U51G | 0.19

Variant | self-cleavage
G33A U51C | 0.37
G33A U51A | 0.26
C32U U49A | 0.15
C32U U49C | 0.21
C32U U67C | 0.19
C32A A57U | 0.2
C32A A57G | 0.24
U31G G33A | 0.57
G33C | 0.23
G33A | 0.28
C32G C40U | 0.22
G33A U54A | 0.18
G33A U54C | 0.15
U31C U49G | 0.3
U31C U49C | 0.23
U31C U49A | 0.5
C32G A56G | 0.12
C32U A77C | 0.15
C32G U41G | 0.11
C32G U41A | 0.32
G33A U60A | 0.15
G33A U60C | 0.24
G33A C62U | 0.11
G33A C62A | 0.37

Variant | self-cleavage
C32A C40U | 0.2
C32A C40A | 0.11
C32A C40G | 0.43
G33C A35G | 0.22
G33C A35U | 0.14
G33A A77U | 0.23
G33A A77G | 0.18
C32U C68G | 0.13
C32U C68U | 0.2
C32A G46A | 0.11
U31C U51C | 0.78
U31C U51A | 0.89
U31C U51G | 0.89
C32A C38G | 0.18
C32A C38A | 0.25
C32A C68U | 0.22
U31C U43A | 1.03
U31C U43G | 0.36
U31C U43C | 0.49
U31G A64G | 0.46
C32A U76C | 0.25
G33A G73A | 0.51
G33A G42U | 0.39
U31C U60G | 0.15

Variant | self-cleavage
U31C U60C | 0.29
U31C U60A | 0.34
C32U U41C | 0.26
C32U U41A | 0.27
C32A C62G | 0.13
G33A U58C | 0.08
C32G G63A | 0.14
U31C U80C | 0.96
U31C U80G | 1.13
U31C U80A | 1.01
G33A C68G | 0.11
G33A C68U | 0.19
G33A A35U | 0.21
G33A A35G | 0.39
C32U U66A | 0.22
C32U U66C | 0.22
C32G U80A | 0.1
C32G U80C | 0.08
C32A U74C | 0.22
U31G U58C | 0.4
U31G U58A | 0.44
C32A C59A | 0.15
C32G A45C | 0.12
C32G A45U | 0.08

Variant | self-cleavage
G33A U48G | 0.18
G33A U48C | 0.26
U31C U58A | 0.31
U31C U58G | 0.39
U31C U58C | 0.33
C32U U80C | 0.44
G33A U43G | 0.34
G33A U43C | 0.29
G33A U43A | 0.32
G33A A57G | 0.25
G33A A57C | 0.11
U31G A65G | 0.22
U31C U76C | 0.88
U31C U76G | 0.8
U31C U76A | 0.77
G33A A64G | 0.16
G33A A64U | 0.28
G33A U69C | 0.27
G33A U69G | 0.16
U31G C32U | 0.22
U31G C32A | 0.28
G33A U49A | 0.29
G33A U49C | 0.28
